Test [1] concerns the target SNX18 in human lung fibroblasts (human) (UniProt Q96RF0). Description: LRC-TriCEPS ligand-receptor capture on living human lung fibroblasts (n=3 donors), LC-MS/MS enrichment; reference ligand BSA.
For test [2], the target named is NRP1 on human lung fibroblasts (human) (UniProt O14786). The description is as above.
The target of test [3] is CD248 on human lung fibroblasts (human) (UniProt Q9HCU0). Described as above.
The target in test [4] is CSPG4 on human lung fibroblasts (human) (UniProt Q6UVK1). The description is as above.
Test [5] has as its target GPC1 on human lung fibroblasts (human) (UniProt P35052). The description is as above.
The target in test [6] is CD44 on human lung fibroblasts (human) (UniProt P16070). The description is as above.
The target of test [7] is CAVN1 in human lung fibroblasts (human) (UniProt Q6NZI2). The test is described as above.
Test [8] addresses RECK on human lung fibroblasts (human) (UniProt O95980). The description is as above.
Test [9] concerns the target ADRB1 on human lung fibroblasts (human) (UniProt P08588). The description is as above.
Test [10] deals with ADT3 in human lung fibroblasts (human) (UniProt P12236). Described as above.
In test [11] the target is SNX18 in human lung fibroblasts (human) (UniProt Q96RF0). Description: LRC-TriCEPS ligand-receptor capture on living human lung fibroblasts (n=3 donors), LC-MS/MS enrichment; reference ligand transferrin (TRFE).
The target of test [12] is NRP1 on human lung fibroblasts (human) (UniProt O14786). Described as above.
Test [13] concerns the target CD248 on human lung fibroblasts (human) (UniProt Q9HCU0). Described as above.
For test [14], the target named is CSPG4 on human lung fibroblasts (human) (UniProt Q6UVK1). The description is as above.
For test [15], the target named is GPC1 on human lung fibroblasts (human) (UniProt P35052). The description is as above.
In test [16] the target is CD44 on human lung fibroblasts (human) (UniProt P16070). The description is as above.
For test [17], the target named is CAVN1 in human lung fibroblasts (human) (UniProt Q6NZI2). The test is described as above.
Test [18] deals with RECK on human lung fibroblasts (human) (UniProt O95980). The description is as above.
The target in test [19] is ADRB1 on human lung fibroblasts (human) (UniProt P08588). Described as above.
Test [20] addresses ADT3 in human lung fibroblasts (human) (UniProt P12236). Described as above.

SNX18 in human lung fibroblasts (human), sequence (Q96RF0 whole entry): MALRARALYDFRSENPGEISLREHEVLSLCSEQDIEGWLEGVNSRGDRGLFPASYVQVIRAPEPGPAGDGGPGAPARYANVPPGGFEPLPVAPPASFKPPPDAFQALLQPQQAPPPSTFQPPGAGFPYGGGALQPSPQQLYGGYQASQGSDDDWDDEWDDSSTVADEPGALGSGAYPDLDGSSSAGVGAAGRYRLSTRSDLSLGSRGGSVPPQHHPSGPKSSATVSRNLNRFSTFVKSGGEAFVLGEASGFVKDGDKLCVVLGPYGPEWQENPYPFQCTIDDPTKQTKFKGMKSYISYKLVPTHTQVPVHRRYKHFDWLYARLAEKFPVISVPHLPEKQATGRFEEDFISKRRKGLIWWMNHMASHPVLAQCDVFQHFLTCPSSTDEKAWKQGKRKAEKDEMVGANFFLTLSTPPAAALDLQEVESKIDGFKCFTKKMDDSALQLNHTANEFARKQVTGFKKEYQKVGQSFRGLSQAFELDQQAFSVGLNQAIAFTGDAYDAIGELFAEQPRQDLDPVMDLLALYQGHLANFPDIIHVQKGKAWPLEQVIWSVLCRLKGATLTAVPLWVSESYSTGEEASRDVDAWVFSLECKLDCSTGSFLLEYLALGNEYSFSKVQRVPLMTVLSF
GPC1 on human lung fibroblasts (human), sequence (P35052 24-530): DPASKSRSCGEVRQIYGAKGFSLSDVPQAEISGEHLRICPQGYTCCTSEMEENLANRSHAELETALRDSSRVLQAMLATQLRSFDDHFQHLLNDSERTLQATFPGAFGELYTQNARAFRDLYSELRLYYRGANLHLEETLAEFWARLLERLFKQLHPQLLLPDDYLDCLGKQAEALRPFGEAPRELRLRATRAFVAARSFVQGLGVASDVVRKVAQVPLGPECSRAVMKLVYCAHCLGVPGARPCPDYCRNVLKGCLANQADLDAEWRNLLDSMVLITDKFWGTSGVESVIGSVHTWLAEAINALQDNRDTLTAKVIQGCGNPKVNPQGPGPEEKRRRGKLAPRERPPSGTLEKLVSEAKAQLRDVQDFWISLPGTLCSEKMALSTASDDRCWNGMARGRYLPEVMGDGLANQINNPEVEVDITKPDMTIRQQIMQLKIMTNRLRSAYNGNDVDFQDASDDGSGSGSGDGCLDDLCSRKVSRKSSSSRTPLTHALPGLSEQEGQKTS
CAVN1 in human lung fibroblasts (human), sequence (Q6NZI2 whole entry): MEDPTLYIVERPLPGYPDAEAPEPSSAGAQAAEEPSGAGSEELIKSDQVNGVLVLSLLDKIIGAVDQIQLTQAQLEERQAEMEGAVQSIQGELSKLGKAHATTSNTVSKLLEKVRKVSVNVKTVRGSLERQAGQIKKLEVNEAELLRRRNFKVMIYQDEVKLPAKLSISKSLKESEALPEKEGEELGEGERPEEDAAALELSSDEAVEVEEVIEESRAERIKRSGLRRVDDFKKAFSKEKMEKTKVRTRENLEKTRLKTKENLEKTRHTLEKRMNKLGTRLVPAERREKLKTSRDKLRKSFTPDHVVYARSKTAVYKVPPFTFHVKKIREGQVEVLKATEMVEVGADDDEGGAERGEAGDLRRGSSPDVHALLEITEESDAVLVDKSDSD
RECK on human lung fibroblasts (human), sequence (O95980 23-942): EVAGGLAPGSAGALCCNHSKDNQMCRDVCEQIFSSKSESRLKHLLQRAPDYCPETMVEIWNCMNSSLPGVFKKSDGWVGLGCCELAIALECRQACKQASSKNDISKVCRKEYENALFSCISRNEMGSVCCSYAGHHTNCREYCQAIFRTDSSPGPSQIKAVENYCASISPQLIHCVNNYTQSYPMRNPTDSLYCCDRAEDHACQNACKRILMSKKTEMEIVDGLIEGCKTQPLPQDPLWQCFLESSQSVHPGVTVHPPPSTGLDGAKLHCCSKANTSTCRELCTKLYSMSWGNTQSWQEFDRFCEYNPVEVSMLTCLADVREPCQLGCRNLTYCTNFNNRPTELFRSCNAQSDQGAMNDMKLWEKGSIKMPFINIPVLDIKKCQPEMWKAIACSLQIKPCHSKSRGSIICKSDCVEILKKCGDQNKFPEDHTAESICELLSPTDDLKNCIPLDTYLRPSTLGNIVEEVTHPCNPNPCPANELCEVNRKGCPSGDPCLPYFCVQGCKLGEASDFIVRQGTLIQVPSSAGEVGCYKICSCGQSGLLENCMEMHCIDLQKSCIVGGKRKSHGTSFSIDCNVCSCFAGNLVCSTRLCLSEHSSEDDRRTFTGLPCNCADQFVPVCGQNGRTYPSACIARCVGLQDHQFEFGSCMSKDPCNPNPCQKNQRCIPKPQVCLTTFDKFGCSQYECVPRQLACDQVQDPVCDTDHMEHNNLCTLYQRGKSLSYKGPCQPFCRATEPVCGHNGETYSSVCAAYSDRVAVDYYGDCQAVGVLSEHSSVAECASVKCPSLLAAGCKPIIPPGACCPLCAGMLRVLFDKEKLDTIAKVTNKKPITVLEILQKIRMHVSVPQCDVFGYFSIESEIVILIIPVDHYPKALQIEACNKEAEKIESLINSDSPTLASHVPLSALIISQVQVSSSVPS
CD44 on human lung fibroblasts (human), sequence (P16070 21-742): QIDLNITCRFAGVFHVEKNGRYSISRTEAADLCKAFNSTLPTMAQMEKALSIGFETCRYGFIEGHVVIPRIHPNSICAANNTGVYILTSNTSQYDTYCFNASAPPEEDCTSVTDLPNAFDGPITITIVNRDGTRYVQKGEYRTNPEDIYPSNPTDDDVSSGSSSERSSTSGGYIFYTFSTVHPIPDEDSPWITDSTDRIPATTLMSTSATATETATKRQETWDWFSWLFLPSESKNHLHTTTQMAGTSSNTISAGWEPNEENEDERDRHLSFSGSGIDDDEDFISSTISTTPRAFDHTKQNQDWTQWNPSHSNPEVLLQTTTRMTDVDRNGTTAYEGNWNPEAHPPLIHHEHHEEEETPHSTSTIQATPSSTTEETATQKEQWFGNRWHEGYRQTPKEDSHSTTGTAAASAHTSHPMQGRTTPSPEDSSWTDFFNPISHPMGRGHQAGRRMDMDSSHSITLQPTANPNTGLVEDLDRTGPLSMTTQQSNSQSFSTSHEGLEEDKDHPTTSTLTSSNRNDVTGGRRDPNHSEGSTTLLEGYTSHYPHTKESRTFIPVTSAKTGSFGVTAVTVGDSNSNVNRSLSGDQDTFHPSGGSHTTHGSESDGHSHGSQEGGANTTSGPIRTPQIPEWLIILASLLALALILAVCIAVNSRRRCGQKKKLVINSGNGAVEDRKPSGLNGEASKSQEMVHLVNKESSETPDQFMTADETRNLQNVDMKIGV
CD248 on human lung fibroblasts (human), sequence (Q9HCU0 18-757): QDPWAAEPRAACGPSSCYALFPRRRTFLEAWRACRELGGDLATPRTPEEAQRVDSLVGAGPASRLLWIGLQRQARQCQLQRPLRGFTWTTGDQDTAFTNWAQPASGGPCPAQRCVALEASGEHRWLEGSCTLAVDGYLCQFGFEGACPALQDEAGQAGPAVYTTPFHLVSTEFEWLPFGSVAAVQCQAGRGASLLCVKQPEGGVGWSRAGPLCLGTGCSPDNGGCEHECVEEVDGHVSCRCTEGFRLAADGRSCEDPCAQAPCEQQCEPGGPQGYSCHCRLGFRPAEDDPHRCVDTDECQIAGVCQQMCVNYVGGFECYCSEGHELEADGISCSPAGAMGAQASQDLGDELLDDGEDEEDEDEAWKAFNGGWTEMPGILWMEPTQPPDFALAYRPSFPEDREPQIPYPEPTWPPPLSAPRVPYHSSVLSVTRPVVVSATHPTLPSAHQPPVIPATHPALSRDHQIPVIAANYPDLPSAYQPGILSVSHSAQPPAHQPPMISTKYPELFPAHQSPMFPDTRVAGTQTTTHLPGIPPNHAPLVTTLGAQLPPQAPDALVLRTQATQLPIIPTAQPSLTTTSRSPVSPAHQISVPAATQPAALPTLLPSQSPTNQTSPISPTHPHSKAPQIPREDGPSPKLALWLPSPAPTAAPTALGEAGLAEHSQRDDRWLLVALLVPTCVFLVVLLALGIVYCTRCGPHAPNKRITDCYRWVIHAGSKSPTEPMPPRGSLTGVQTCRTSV
ADRB1 on human lung fibroblasts (human), sequence (P08588 whole entry): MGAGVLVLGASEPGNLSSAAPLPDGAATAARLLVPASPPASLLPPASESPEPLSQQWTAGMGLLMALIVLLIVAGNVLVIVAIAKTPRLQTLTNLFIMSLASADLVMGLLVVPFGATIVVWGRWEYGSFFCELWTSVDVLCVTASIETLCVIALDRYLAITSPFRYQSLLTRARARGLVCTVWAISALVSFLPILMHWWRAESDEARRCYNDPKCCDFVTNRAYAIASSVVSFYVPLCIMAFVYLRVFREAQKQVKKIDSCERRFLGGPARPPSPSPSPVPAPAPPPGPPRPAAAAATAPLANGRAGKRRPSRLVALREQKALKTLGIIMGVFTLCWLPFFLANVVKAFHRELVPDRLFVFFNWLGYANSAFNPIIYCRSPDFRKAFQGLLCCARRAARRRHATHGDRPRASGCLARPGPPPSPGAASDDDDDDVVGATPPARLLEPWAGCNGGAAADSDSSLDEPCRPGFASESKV
ADT3 in human lung fibroblasts (human), sequence (P12236 whole entry): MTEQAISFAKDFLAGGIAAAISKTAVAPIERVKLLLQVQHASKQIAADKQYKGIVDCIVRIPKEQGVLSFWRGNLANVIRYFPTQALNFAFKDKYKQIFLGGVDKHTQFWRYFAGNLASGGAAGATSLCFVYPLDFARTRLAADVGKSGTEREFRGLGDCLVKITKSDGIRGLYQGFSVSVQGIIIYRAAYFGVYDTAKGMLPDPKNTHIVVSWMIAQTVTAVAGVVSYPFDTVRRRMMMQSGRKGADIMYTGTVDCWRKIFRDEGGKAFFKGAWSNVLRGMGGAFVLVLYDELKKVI

As to “recombinant human IGFBP5 (from UniProt P24593 21-272) (ligand)”, the log2(FC) IGFBP5 vs BSA (log2 fold change) is -2.5 in test [1]; -3.8 in test [2]; -2.2 in [3]; -2.2 in [4]; -5.9 in [5]; -0.8 in test [6]. Further, the log2(FC) IGFBP5 vs BSA (log2 fold change) was -1.5 in test [7], -4.3 in [8], -4.9 in [9] and -1.6 in test [10]. For the same substance, the log2(FC) IGFBP5 vs TRFE (log2 fold change) in [11] is -1.7; in [12] it was -3.7; in [13] it was -1.8; in [14] it was -2.3; in test [15], -5.5; in [16], -0.6. In addition, the log2(FC) IGFBP5 vs TRFE (log2 fold change) in test [17] was -1; in [18] it was -2.3; in [19] it was -4.1; in test [20] it was -1.

For the origin of these results see patent publication EP4537907A1.
